Reference: publication PMC8018021 (Proceedings of the National Academy of Sciences of the …, 2021)
Where “and” joins values, the source holds several entries; their conditions need not be identical. Equal values may be shown once. Blank lines part the entries; values can stand above or below the molecule they belong to.

Assays:
PII–PirC complex [1] = target: T1, PII–PirC complex (Synechocystis sp. PCC 6803, UniProt Q55247); test: bio-layer interferometry, enhancement of PirC–PII binding; settings: effector promotes PII–PirC complex
T1 sequence (Q55247 whole entry, one chain of several): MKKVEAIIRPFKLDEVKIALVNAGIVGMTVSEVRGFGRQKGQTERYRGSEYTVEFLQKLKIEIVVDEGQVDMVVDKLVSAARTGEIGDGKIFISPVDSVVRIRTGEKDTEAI

PII–PirC complex [2] = target: T1, PII–PirC complex; test: bio-layer interferometry, inhibition of PirC–PII binding
PGAM–PirC complex = target: T2, PGAM–PirC complex (Synechocystis sp. PCC 6803, UniProt P74507); test: bio-layer interferometry, inhibition of PirC–PGAM binding
T2 sequence (P74507 1-532): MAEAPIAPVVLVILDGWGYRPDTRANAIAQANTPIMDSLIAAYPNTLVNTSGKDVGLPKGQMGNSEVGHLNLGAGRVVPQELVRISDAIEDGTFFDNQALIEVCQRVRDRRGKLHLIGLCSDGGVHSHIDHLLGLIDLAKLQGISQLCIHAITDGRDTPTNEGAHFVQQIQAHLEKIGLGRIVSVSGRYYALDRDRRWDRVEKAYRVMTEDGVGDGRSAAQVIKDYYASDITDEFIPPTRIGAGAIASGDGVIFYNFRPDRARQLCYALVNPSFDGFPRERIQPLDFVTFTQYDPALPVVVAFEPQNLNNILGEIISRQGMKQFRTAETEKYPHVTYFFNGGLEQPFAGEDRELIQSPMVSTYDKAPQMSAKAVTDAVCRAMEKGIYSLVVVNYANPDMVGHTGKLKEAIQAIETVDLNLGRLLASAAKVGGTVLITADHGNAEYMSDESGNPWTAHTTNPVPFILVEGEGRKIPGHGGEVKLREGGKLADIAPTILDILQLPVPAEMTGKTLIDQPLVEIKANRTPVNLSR
T2 sequence (P77971 53-164 partner): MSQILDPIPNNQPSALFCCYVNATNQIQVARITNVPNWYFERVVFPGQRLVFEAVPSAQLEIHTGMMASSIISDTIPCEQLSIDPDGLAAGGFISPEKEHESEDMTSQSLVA

purified protein = substrate: O=C(O)[C@H](O)COP(=O)(O)O; test: purified protein; format: biochemical, Synechocystis sp. PCC 6803; settings: no PirC, pH 8.0, 30 °C, 5 mM MgSO4, 0.4 mM MnCl2, 100 mM KCl
[3] = target: T3, PII signalling protein, C-terminal His8-tagged (Synechocystis sp. PCC 6803, UniProt Q55247 1-112); test: SPR
T3 sequence (Q55247 whole entry): as the sequence (Q55247 whole entry, one chain of several) above

[4] = target: T3, PII signalling protein, C-terminal …; test: BLI

Molecule: Nc1ncnc2c1ncn2[C@@H]1O[C@H](COP(=O)(O)OP(=O)(O)OP(=O)(O)O)[C@@H](O)[C@H]1O [ATP]
bio-layer interferometry, enhancement of PirC-PII binding (PII–PirC complex [1]; 2 mM ATP): In the presence of ATP or ADP, PirC binding to PII strongly increased

IC50 (PII–PirC complex [2]): 123.4 ± 1.1 µM
Molecule: O=C(O)CCC(=O)C(=O)O [2-OG]

Molecule: Nc1ncnc2c1ncn2[C@@H]1O[C@H](COP(=O)(O)OP(=O)(O)O)[C@@H](O)[C@H]1O [ADP]
bio-layer interferometry, enhancement of PirC-PII binding (PII–PirC complex [1]; 2 mM ADP): In the presence of ATP or ADP, PirC binding to PII strongly increased

IC50 (PGAM–PirC complex): 970 ± 1 µM
Molecule: O=C(O)[C@@H](CO)OP(=O)(O)O [2-PGA]

IC50 (PGAM–PirC complex): 2400 ± 1 µM
Molecule: O=C(O)[C@H](O)COP(=O)(O)O [3-PGA]

B1: PGAM (Synechocystis sp. PCC 6803 substr. Kazusa) (protein)
chain: T2 sequence (P74507 1-532)
Km (purified protein): 126.6 ± 6.4 µM
Vmax (purified protein): 2.85 µmol/min/mg
kcat (purified protein): 2.78 ± 0.03 s⁻¹
kcat/Km (purified protein): 22000 M⁻¹ s⁻¹

stoichiometry N [3]: ~1 PirC monomer per PII trimer
Kd [4]: 0.0373 µM and 0.0141 µM
B2: PirC (PII-interacting regulator of carbon metabolism; product of sll0944), short 112-amino-acid variant, strep-tagged (natural protein)
chain: T2 sequence (P77971 53-164 partner)
